According to US8980543B2, “Method of measuring enzyme activity by multi-dimensional nuclear magnetic resonance” (Canon Kabushiki Kaisha, priority 2007, dated 2015):

Target: T1, MMP2 (Homo sapiens, UniProt P08253)
T1 construct: purchased R&D systems Inc
T1 sequence (P08253 110-660): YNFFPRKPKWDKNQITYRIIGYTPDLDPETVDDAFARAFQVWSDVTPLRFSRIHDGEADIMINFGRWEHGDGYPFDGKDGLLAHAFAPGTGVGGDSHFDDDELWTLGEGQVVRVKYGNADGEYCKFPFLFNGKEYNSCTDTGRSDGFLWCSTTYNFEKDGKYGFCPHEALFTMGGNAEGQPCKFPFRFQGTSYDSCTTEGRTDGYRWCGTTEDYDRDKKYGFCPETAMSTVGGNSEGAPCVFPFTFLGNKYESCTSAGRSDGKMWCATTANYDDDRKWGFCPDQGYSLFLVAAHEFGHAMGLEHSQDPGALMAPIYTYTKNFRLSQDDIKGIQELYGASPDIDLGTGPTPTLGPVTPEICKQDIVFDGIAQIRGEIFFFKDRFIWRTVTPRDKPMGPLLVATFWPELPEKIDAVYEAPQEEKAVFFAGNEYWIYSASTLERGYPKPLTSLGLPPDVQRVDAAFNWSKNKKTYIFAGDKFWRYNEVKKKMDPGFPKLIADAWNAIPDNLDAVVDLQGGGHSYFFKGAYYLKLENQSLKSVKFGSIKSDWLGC
Experiment: Reaction between MMP2 and substrate peptide-probe, cleavage monitored by HPLC and MALDI-TOF-MS
Type: biochemical
Settings: 1 mM peptide, MMP2 1 μg, TCNB buffer pH 7.5, room temperature (25° C.), 18 hours; fragments GPLG and VRGK
Protocol: A TCNB buffer (50 mM Tris, 10 mM CaCl2, 150 mM NaCl, 0.05% Brij 35, pH 7.5) was used as a buffer for an enzymatic reaction. A MMP2 precursor (R&D systems Inc.) was activated in 1 mM 4-aminophenylmercury acetate (APMA, manufactured by Sigma) in accordance with the protocol attached to the product to obtain activated MMP2 (hereinafter, simply referred to as MMP2). MMP2 (1 μg) was dissolved in 0.9 mL of the reaction buffer. To this solution, 780 μg of the substrate peptide synthesized above was added to obtain a solution containing a peptide in a concentration of 1 mM. The resultant solution was incubated at 25° C. for 18 hours.
The peptide was cleaved by an enzyme, MMP2. The peptide solution before and after the reaction with the enzyme was monitored by HPLC analysis (A=H2O/0.1% TFA and C═CH3CN/0.1% TFA; initial 5 minutes: 0% C, 5 to 35 minutes: 0 to 30% C, using an YMC HPLC column, YMC-Pack ODS-A (AAl2S05-2546WT) manufactured by YMC and having a length of 250 mm and an inner diameter of 4.6 mm; a particle diameter of 5 μm, a pore diameter of 12 nm, a flow amount of 0.8 mL/minute; and detection was made at UV of 220 nm). HPLC elution profiles of the peptide solution (MMP−) before treated with the enzyme and the peptide solution (MMP+) after treated with the enzyme are illustrated in FIG. 5.
The peak was separated and subjected to MALDI-TOF-MS analysis. […]

In the case of GPLGVRGK, the “cleavage of the isotope-labeled peptide by MMP2” value is reported as “completely cleaved”.
